The record followed here is paper PMC5288973.

In this assay the target is taxol-stabilized microtubules assembled from bovine brain tubulin (bovine) (UniProt Q6B856). Description: co-sedimentation; various amounts of MBP-GPT2 with a constant amount of taxol-stabilized MTs polymerized from 1 uM tubulin heterodimer; fit of q = (qmax x c)/(Kd + c), one GPT2 binding site on the tubulin dimer assumed.

For “MBP-GPT2 (full-length Growing Plus-end Tracking protein 2 fused to maltose-binding protein) (from UniProt Q94B38 69-388) (natural protein)”, the stoichiometry N (mol of GPT2 per mol of tubulin dimer) was determined as 2.5.
